How the values were obtained:
Settings in all cases: both partners purified
[1] = biological target: T1, CMGE (budding yeast CMG helicase, Cdc45-Mcm2-7-GINS, together with DNA polymerase ε) (S. cerevisiae, UniProt P29469 1-868; P24279 1-971; P30665 1-933; P29496 1-775; P53091 1-1017; P38132 …); assay: co-IP; purified proteins mixed: 1–10 nM Rrm3/Rrm3N-BacPif1/BacPif1 with 15 nM CMG and 30 nM Pol ε, 10 min on ice; anti-Sld5 beads, 30 min 4 °C; 25 mM Hepes-KOH pH 7.6, 400 mM KOAc, 0.02% NP-40-S, 0.1 mg/mL BSA, 1 mM DTT, 10 mM Mg(OAc)2; immunoblotting
T1 construct: Mcm2, S. cerevisiae, subunit of CMG; Mcm3, S. cerevisiae, subunit of CMG (CBP-TEV-MCM3); Mcm4, S. cerevisiae, subunit of CMG; Mcm5, S. cerevisiae, subunit of CMG; Mcm6, S. cerevisiae, subunit of CMG; Mcm7, S. cerevisiae, subunit of CMG; Cdc45, S. cerevisiae, subunit of CMG (CDC45iFLAG2, internal FLAG tag; detected by anti-FLAG immunoblotting); Sld5, S. cerevisiae, GINS subunit of CMG …

[2] = biological target: T2, GINS tetramer (Sld5, Psf1, Psf2, Psf3), S. cerevisiae (S. cerevisiae, UniProt Q03406 1-294; Q12488 1-208; P40359 1-213; Q12146 1-194); assay: co-IP; purified proteins mixed: 10 nM FLAG-Rrm3 with 15 nM GINS, 10 min on ice; anti-FLAG M2 magnetic beads; 25 mM Hepes-KOH pH 7.6, 200 mM KOAc, 0.02% NP-40-S, 0.1 mg/mL BSA, 1 mM DTT, 10 mM Mg(OAc)2; immunoblotting
T2 construct: Sld5, GINS subunit, S. cerevisiae; Psf1, GINS subunit, S. cerevisiae; Psf2, GINS subunit, S. cerevisiae; Psf3, GINS subunit, S. cerevisiae; pJL005 with TwinStrep-Psf3; also called tetrameric GINS complex; source: purified as previously described (Yeeles et al, 2015; Lewis et al, 2022); copies: + + +
T2 sequence (looked up) 1: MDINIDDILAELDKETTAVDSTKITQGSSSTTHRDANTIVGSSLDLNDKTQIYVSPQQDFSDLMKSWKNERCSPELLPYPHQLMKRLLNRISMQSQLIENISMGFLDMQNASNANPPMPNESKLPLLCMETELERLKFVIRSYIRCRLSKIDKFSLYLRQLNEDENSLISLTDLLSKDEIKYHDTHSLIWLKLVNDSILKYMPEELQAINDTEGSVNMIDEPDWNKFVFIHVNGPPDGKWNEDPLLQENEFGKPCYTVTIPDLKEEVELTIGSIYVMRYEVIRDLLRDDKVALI
T2 sequence (looked up) 2: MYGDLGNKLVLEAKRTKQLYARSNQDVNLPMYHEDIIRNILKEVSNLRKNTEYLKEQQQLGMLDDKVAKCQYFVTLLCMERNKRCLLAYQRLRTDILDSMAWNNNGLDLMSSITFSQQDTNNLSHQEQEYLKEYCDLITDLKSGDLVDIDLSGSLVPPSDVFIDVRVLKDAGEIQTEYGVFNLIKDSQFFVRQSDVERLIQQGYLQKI
T2 sequence (looked up) 3: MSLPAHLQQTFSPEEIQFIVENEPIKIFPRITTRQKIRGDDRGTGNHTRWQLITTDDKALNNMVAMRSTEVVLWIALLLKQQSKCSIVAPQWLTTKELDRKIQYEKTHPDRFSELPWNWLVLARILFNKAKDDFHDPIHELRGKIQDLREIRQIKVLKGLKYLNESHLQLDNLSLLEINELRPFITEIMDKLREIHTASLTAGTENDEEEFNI
T2 sequence (looked up) 4: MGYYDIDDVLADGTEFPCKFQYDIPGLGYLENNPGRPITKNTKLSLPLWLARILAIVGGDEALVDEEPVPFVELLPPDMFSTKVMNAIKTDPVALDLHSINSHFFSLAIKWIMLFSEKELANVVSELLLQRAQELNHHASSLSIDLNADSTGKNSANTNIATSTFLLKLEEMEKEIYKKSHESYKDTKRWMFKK

[3] = biological target: T3, DNA polymerase ε (Pol2, Dpb2, Dpb3, Dpb4), S. cerevisiae (S. cerevisiae, UniProt P21951 1-2222; P24482 1-689; P27344 1-201; Q04603 1-196); assay: co-IP; purified proteins mixed: 10 nM FLAG-Rrm3 with 15 nM Pol ε, 10 min on ice; anti-FLAG M2 magnetic beads; 25 mM Hepes-KOH pH 7.6, 400 mM KOAc, 0.02% NP-40-S, 0.1 mg/mL BSA, 1 mM DTT, 10 mM Mg(OAc)2; immunoblotting
T3 construct: Pol2, catalytic subunit of DNA polymerase ε, S. cerevisiae; Dpb2, second largest subunit of DNA polymerase ε, S. cerevisiae; Dpb3, subunit of DNA polymerase ε, S. cerevisiae; Dpb4, subunit of DNA polymerase ε, S. cerevisiae (DPB4-TEV-CBP); also called Polε; Pol ε; source: S. cerevisiae strain yAJ2, purified as previously described (Yeeles et al, 2015); copies: + + +

Measured: binding result

T3 sequence (P21951 whole entry, chain 1 of 4): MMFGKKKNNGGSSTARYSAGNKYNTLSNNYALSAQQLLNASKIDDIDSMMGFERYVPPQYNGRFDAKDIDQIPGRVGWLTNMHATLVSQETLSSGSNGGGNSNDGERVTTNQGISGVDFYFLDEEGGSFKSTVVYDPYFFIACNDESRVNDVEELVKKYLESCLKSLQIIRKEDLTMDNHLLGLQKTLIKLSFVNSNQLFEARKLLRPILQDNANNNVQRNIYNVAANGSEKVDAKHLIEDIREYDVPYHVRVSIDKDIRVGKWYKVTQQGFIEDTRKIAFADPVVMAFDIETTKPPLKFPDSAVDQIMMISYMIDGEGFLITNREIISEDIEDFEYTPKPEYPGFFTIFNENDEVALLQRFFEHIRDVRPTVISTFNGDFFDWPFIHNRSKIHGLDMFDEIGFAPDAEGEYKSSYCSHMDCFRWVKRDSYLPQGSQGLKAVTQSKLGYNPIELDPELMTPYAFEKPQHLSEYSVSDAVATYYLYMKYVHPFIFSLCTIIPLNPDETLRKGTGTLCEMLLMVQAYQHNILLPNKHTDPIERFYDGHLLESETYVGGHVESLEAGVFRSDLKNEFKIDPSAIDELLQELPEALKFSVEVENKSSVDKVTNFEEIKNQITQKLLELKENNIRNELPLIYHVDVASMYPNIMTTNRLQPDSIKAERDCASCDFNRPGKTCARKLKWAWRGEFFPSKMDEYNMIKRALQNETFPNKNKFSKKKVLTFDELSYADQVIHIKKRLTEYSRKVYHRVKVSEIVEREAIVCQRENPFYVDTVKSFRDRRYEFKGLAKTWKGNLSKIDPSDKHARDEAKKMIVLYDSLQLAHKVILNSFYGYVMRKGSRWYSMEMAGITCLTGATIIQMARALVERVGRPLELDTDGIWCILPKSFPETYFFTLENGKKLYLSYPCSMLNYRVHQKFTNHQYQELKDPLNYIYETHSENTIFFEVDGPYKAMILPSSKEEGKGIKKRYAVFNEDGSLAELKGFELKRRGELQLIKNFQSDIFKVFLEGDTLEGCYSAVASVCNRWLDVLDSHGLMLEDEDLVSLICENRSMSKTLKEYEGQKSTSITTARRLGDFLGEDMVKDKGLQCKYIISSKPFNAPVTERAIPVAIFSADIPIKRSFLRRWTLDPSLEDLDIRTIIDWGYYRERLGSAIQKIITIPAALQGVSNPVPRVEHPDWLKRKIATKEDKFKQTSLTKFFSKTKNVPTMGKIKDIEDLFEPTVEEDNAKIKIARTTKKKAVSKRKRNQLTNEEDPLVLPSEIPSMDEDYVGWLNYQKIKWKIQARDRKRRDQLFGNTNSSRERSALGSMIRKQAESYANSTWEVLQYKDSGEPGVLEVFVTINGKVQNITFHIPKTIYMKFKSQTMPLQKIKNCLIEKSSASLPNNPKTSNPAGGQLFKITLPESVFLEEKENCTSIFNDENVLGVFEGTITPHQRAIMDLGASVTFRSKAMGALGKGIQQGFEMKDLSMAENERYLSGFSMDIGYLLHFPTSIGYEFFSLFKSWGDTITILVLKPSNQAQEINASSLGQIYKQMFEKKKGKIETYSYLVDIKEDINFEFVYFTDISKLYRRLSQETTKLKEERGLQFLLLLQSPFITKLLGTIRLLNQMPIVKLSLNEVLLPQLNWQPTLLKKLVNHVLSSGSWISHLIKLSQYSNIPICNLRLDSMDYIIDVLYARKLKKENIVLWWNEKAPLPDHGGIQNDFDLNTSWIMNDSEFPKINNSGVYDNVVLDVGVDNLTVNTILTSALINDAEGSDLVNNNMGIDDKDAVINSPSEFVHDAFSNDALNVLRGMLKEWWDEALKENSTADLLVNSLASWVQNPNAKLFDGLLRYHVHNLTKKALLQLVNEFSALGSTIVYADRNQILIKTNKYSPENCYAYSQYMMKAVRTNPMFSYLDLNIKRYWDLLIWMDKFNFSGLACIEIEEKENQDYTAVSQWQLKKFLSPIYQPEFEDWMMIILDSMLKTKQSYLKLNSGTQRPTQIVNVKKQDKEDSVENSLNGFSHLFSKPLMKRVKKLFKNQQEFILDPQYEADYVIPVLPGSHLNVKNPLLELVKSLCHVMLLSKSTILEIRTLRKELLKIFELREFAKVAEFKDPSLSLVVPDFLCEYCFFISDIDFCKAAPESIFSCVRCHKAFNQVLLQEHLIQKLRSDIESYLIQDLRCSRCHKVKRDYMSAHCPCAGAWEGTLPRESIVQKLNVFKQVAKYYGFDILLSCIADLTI
T3 sequence (P24482 whole entry, chain 2 of 4): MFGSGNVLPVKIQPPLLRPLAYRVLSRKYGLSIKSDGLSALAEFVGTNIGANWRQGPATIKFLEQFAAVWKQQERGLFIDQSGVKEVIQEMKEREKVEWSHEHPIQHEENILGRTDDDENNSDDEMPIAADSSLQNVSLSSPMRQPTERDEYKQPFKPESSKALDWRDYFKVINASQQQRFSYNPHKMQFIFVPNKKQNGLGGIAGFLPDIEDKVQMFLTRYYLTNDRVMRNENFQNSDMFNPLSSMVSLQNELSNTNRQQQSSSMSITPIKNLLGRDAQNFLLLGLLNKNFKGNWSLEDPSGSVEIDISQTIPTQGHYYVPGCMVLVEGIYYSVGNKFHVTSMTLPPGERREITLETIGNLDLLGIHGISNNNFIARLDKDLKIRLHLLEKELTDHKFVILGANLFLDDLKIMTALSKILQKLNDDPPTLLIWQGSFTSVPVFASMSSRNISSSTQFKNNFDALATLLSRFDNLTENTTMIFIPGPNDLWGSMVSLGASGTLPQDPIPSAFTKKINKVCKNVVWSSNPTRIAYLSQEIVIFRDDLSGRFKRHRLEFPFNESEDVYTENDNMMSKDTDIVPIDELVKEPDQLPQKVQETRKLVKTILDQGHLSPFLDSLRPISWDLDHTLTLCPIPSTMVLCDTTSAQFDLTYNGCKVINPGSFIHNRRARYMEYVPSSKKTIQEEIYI
T3 sequence (P27344 whole entry, chain 3 of 4): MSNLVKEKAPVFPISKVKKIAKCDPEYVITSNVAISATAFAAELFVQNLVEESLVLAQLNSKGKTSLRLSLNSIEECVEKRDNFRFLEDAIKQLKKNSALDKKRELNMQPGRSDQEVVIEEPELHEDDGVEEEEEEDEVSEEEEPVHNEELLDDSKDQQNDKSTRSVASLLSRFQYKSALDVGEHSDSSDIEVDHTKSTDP
T3 sequence (Q04603 whole entry, chain 4 of 4): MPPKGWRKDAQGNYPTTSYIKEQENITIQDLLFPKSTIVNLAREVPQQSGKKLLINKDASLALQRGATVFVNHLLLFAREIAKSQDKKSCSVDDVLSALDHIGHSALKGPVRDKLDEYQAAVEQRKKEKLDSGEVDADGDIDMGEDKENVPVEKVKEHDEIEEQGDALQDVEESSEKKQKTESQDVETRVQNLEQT

B1: Rrm3 (wild-type, FLAG-tagged) (enzyme, S. cerevisiae, UniProt P38766 1-723, looked up)
chain: MFRSHASGNKKQWSKRSSNGSTPAASASGSHAYRQQTLSSFFMGCGKKSAAASKNSTTIIDLESGDEGNRNITAPPRPRLIRNNSSSLFSQSQGSFGDDDPDAEFKKLVDVPRLNSYKKSSRSLSMTSSLHKTASASTTQKTYHFDEDETLREVTSVKSNSRQLSFTSTINIEDSSMKLSTDSERPAKRSKPSMEFQGLKLTVPKKIKPLLRKTVSNMDSMNHRSASSPVVLTMEQERVVNLIVKKRTNVFYTGSAGTGKSVILQTIIRQLSSLYGKESIAITASTGLAAVTIGGSTLHKWSGIGIGNKTIDQLVKKIQSQKDLLAAWRYTKVLIIDEISMVDGNLLDKLEQIARRIRKNDDPFGGIQLVLTGDFFQLPPVAKKDEHNVVKFCFESEMWKRCIQKTILLTKVFRQQDNKLIDILNAIRYGELTVDIAKTIRNLNRDIDYADGIAPTELYATRREVELSNVKKLQSLPGDLYEFKAVDNAPERYQAILDSSLMVEKVVALKEDAQVMMLKNKPDVELVNGSLGKVLFFVTESLVVKMKEIYKIVDDEVVMDMRLVSRVIGNPLLKESKEFRQDLNARPLARLERLKILINYAVKISPHKEKFPYVRWTVGKNKYIHELMVPERFPIDIPRENVGLERTQIPLMLCWALSIHKAQGQTIQRLKVDLRRIFEAGQVYVALSRAVTMDTLQVLNFDPGKIRTNERVKDFYKRLETLK
notes: Rrm3 Pif1-family 5'-3' DNA helicase, S. cerevisiae; helicase domain printed as residues 230-723; Gene codon optimised for expression; a TEV site lies between the 3FLAG tag and Rrm3; also called WT Rrm3; full-length Rrm3; source: S. cerevisiae strain yTDK9, purified (anti-FLAG M2 resin, HiTrap heparin); not shown: 3FLAG, N-terminal, kept
binds: [1] | [2] | [3]
